This note sets out measurements from PMC9352680, “A comprehensive thermodynamic model for RNA binding by the Saccharomyces cerevisiae Pumilio protein PUF4”.

Sequences and labels used below:
T1: PUF4 RNA-binding domain (Saccharomyces cerevisiae, UniProt P25339 537-888)
T1 sequence: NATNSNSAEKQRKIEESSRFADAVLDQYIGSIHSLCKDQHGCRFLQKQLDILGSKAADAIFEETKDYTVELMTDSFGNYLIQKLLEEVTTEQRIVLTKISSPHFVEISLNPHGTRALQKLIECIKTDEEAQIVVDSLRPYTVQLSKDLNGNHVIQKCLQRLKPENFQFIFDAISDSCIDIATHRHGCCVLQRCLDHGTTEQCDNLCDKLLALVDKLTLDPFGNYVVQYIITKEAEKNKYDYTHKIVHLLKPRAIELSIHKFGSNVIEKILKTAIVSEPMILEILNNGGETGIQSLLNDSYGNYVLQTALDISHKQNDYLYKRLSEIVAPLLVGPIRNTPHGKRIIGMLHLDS

B1: Ic_S4_P4E.1_K4.1_C4.1_H4.1_A4.1_F4.1_[T8C]_[A9C]_T4.1 (ssRNA)
RNA: UUUGACAACUGAUCGUUCUUUCUUGUAUAUCCUUCUUUCUCGAUCAGUUGUCUUU
B2: Ic_S4_P4E.1_K4.1_C4.1_H4.1_A4.1_F4.1_[T8A]_T4.1 (ssRNA)
RNA: UUUGACAACUGAUCGUUCUUUCUUGUAUAUAAUUCUUUCUCGAUCAGUUGUCUUU
B3: Ic_S4_P4E.1_K4.1_C4.1_H4.1_A4.1_F4.1_[A9C]_T4.1 (ssRNA)
RNA: UUUGACAACUGAUCGUUCUUUCUUGUAUAUUCUUCUUUCUCGAUCAGUUGUCUUU
B4: Ic_S4_P4E.1_K4.1_C4.1_H4.1_A4.1_F4.1_T4.1 (ssRNA)
RNA: UUUGACAACUGAUCGUUCUUUCUUGUAUAUUAUUCUUUCUCGAUCAGUUGUCUUU
B5: Ic_S4_P5E.1_K5.1_C5.1_H5.1_A5.1_[T5C]_[T6C]_F5.1_[T8A]_[T9C]_[A10C]_T5.1 (ssRNA)
RNA: UUUGACAACUGAUCGUUCUUUCUUGUACCAACCUUCUUUCUCGAUCAGUUGUCUUU
B6: Ic_S4_P5E.1_K5.1_C5.1_H5.1_A5.1_[T5C]_[T6C]_[A7G]_F5.1_[T8A]_[T9C]_[A10C]_T5.1 (ssRNA)
RNA: UUUGACAACUGAUCGUUCUUUCUUGUACCGACCUUCUUUCUCGAUCAGUUGUCUUU
B7: Ic_S4_P5E.1_K5.1_C5.1_H5.1_A5.1_[T5C]_[T6C]_[A7T]_F5.1_[T8C]_[T9C]_T5.1 (ssRNA)
RNA: UUUGACAACUGAUCGUUCUUUCUUGUACCUCCAUUCUUUCUCGAUCAGUUGUCUUU
B8: Ic_S4_P5E.1_K5.1_C5.1_H5.1_A5.1_[A7C]_F5.1_[T8G]_[A10G]_T5.1 (ssRNA)
RNA: UUUGACAACUGAUCGUUCUUUCUUGUAUUCGUGUUCUUUCUCGAUCAGUUGUCUUU
B9: Ic_S4_P5E.1_K5.1_C5.1_H5.1_A5.1_[T6C]_F5.1_[T8A]_[T9A]_[A10C]_T5.1 (ssRNA)
RNA: UUUGACAACUGAUCGUUCUUUCUUGUAUCAAACUUCUUUCUCGAUCAGUUGUCUUU
B10: Ic_S4_P5E.1_K5.1_C5.1_H5.1_A5.1_[T6A]_[A7G]_F5.1_[T9A]_[A10C]_T5.1 (ssRNA)
RNA: UUUGACAACUGAUCGUUCUUUCUUGUAUAGUACUUCUUUCUCGAUCAGUUGUCUUU
B11: Ic_S4_P5E.1_K5.1_C5.1_H5.1_A5.1_[T5A]_F5.1_[T9C]_T5.1 (ssRNA)
RNA: UUUGACAACUGAUCGUUCUUUCUUGUAAUAUCAUUCUUUCUCGAUCAGUUGUCUUU
B12: Ic_S4_P5E.1_K5.1_C5.1_H5.1_A5.1_[T5A]_[A7G]_F5.1_[T8C]_[T9A]_[A10T]_T5.1 (ssRNA)
RNA: UUUGACAACUGAUCGUUCUUUCUUGUAAUGCAUUUCUUUCUCGAUCAGUUGUCUUU
B13: Ic_S4_P5E.1_K5.1_C5.1_H5.1_A5.1_[T5C]_[T6A]_[A7T]_F5.1_[T8G]_[A10G]_T5.1 (ssRNA)
RNA: UUUGACAACUGAUCGUUCUUUCUUGUACAUGUGUUCUUUCUCGAUCAGUUGUCUUU
B14: Ic_S4_P5E.1_K5.1_C5.1_H5.1_A5.1_[T5C]_[T6A]_[A7C]_F5.1_[T9G]_[A10G]_T5.1 (ssRNA)
RNA: UUUGACAACUGAUCGUUCUUUCUUGUACACUGGUUCUUUCUCGAUCAGUUGUCUUU
B15: Ic_S4_P5E.1_K5.1_C5.1_H5.1_A5.1_[T6A]_[A7C]_F5.1_[T8C]_[T9G]_[A10T]_T5.1 (ssRNA)
RNA: UUUGACAACUGAUCGUUCUUUCUUGUAUACCGUUUCUUUCUCGAUCAGUUGUCUUU
B16: Ic_S4_P5E.1_K5.1_C5.1_H5.1_A5.1_[T5A]_[T6C]_[A7C]_F5.1_[T8G]_[T9C]_[A10C]_T5.1 (ssRNA)
RNA: UUUGACAACUGAUCGUUCUUUCUUGUAACCGCCUUCUUUCUCGAUCAGUUGUCUUU
B17: Ic_S4_P5E.1_K5.1_C5.1_H5.1_A5.1_[T5G]_[T6C]_[A7T]_F5.1_[T8C]_[T9C]_[A10C]_T5.1 (ssRNA)
RNA: UUUGACAACUGAUCGUUCUUUCUUGUAGCUCCCUUCUUUCUCGAUCAGUUGUCUUU
B18: Ic_S4_P5E.1_K5.1_C5.1_H5.1_A5.1_[T5G]_F5.1_[T8A]_[T9C]_[A10C]_T5.1 (ssRNA)
RNA: UUUGACAACUGAUCGUUCUUUCUUGUAGUAACCUUCUUUCUCGAUCAGUUGUCUUU
B19: Ic_S4_P5E.1_K5.1_C5.1_H5.1_A5.1_[T5C]_[T6G]_[A7T]_F5.1_[T8C]_[T9C]_[A10C]_T5.1 (ssRNA)
RNA: UUUGACAACUGAUCGUUCUUUCUUGUACGUCCCUUCUUUCUCGAUCAGUUGUCUUU
B20: Ic_S4_P5E.1_K5.1_C5.1_H5.1_A5.1_[T5C]_[T6G]_[A7G]_F5.1_[T9A]_T5.1 (ssRNA)
RNA: UUUGACAACUGAUCGUUCUUUCUUGUACGGUAAUUCUUUCUCGAUCAGUUGUCUUU
B21: Ic_S4_P5E.1_K5.1_C5.1_H5.1_A5.1_[T6A]_[A7T]_F5.1_[T8C]_[T9G]_[A10C]_T5.1 (ssRNA)
RNA: UUUGACAACUGAUCGUUCUUUCUUGUAUAUCGCUUCUUUCUCGAUCAGUUGUCUUU
B22: Ic_S4_P5E.1_K5.1_C5.1_H5.1_A5.1_[T6C]_[A7G]_F5.1_[T8G]_T5.1 (ssRNA)
RNA: UUUGACAACUGAUCGUUCUUUCUUGUAUCGGUAUUCUUUCUCGAUCAGUUGUCUUU
B23: Ic_S4_P5E.1_K5.1_C5.1_H5.1_A5.1_[T5A]_[T6C]_[A7T]_F5.1_[T8C]_[T9A]_T5.1 (ssRNA)
RNA: UUUGACAACUGAUCGUUCUUUCUUGUAACUCAAUUCUUUCUCGAUCAGUUGUCUUU
B24: Ic_S4_P5E.1_K5.1_C5.1_H5.1_A5.1_[A7T]_F5.1_[T8C]_[T9C]_T5.1 (ssRNA)
RNA: UUUGACAACUGAUCGUUCUUUCUUGUAUUUCCAUUCUUUCUCGAUCAGUUGUCUUU
B25: Ic_S4_P5E.1_K5.1_C5.1_H5.1_A5.1_[T5G]_[A7G]_F5.1_[T8C]_[T9C]_[A10T]_T5.1 (ssRNA)
RNA: UUUGACAACUGAUCGUUCUUUCUUGUAGUGCCUUUCUUUCUCGAUCAGUUGUCUUU
B26: Ic_S4_P5E.1_K5.1_C5.1_H5.1_A5.1_[T6C]_[A7T]_F5.1_[T9A]_[A10G]_T5.1 (ssRNA)
RNA: UUUGACAACUGAUCGUUCUUUCUUGUAUCUUAGUUCUUUCUCGAUCAGUUGUCUUU
B27: Ic_S4_P5E.1_K5.1_C5.1_H5.1_A5.1_[T5C]_[A7C]_F5.1_[T8A]_[T9G]_[A10C]_T5.1 (ssRNA)
RNA: UUUGACAACUGAUCGUUCUUUCUUGUACUCAGCUUCUUUCUCGAUCAGUUGUCUUU
B28: Ic_S4_P5E.1_K5.1_C5.1_H5.1_A5.1_[T5C]_F5.1_[T9A]_[A10C]_T5.1 (ssRNA)
RNA: UUUGACAACUGAUCGUUCUUUCUUGUACUAUACUUCUUUCUCGAUCAGUUGUCUUU
B29: Ic_S4_P5E.1_K5.1_C5.1_H5.1_A5.1_[T5C]_[T6C]_[A7T]_F5.1_[A10T]_T5.1 (ssRNA)
RNA: UUUGACAACUGAUCGUUCUUUCUUGUACCUUUUUUCUUUCUCGAUCAGUUGUCUUU
B30: Ic_S4_P5E.1_K5.1_C5.1_H5.1_A5.1_[T6C]_F5.1_[T8C]_[T9A]_[A10T]_T5.1 (ssRNA)
RNA: UUUGACAACUGAUCGUUCUUUCUUGUAUCACAUUUCUUUCUCGAUCAGUUGUCUUU
B31: Ic_S4_P5E.1_K5.1_C5.1_H5.1_A5.1_[T5G]_[A7T]_F5.1_[T9C]_[A10C]_T5.1 (ssRNA)
RNA: UUUGACAACUGAUCGUUCUUUCUUGUAGUUUCCUUCUUUCUCGAUCAGUUGUCUUU
B32: Ic_S4_P5E.1_K5.1_C5.1_H5.1_A5.1_[T5C]_[A7C]_F5.1_[T9C]_[A10G]_T5.1 (ssRNA)
RNA: UUUGACAACUGAUCGUUCUUUCUUGUACUCUCGUUCUUUCUCGAUCAGUUGUCUUU

Broadly, the Kd is the free concentration of one partner at which half of the binding sites on the other are occupied at equilibrium, for simple one-to-one binding.

This data set concerns the target T1, PUF4 RNA-binding domain. Briefly: Mg; RNA-MaP; 20 mM Na-HEPES pH 7.4, 30 mM KOAc, 0.75 mM MgCl2, 0.1% Tween-20, 5% glycerol, 0.1 mg/mL BSA, 2 mM DTT; 25 C; 0.0125-409.6 nM protein. The following applies: tags: N-His6-TEV cleaved; C-SNAP kept, Cy3B-labelled; label: tethered on chip by stalled RNA polymerase.
For UCUCUUUGUAAAUUCUCUCUU (ssRNA) [Ib_S1_P4E.1_K4.1_C4.1_H4.1_A4.1_[T5A]_F4.1_[A9C]_T4.1], the dissociation constant Kd is 26.3 nM.
The same measure for B1: 12.3 nM; for B2: 2.9 nM.
Consider B3, for which the Kd worked out at 4.49 nM.
The figure for B4 is 0.362 nM; for UCUCUUUGUAAAUUGUCUCUU (ssRNA) [Ic_S1_P4E.1_K4.1_C4.1_H4.1_A4.1_[T5A]_F4.1_[A9G]_T4.1] it is 10.9 nM.
The same measure for B5: 424 nM; for B6: 1020 nM.
The same measure for B7: 198 nM; for B8: 66.3 nM; for B9: 156 nM.
B10 came in with a Kd of 3.94 nM.
On to B11, for which the dissociation constant (Kd) came out at 113 nM.
In turn, B12 returned a dissociation constant Kd of 844 nM.
The figure for B13 is 24 nM; for B14 it is 14.9 nM; for B15 it is 37.8 nM.
Turning to B16, binding was characterised by a dissociation constant (Kd) of 1380 nM.
The figure for B17 is 658 nM; for B18 it is 1160 nM.
The molecule B19 registered a dissociation constant (Kd) of 114 nM.
B20 yielded a Kd of 38.4 nM.
B21 gave a Kd of 21.8 nM.
With B22, binding was characterised by a dissociation constant (Kd) of 45.9 nM.
B23 showed a Kd of 857 nM.
As for B24, the dissociation constant Kd worked out at 120 nM.
B25 showed a Kd of 956 nM.
The molecule B26 yielded an equilibrium dissociation constant (Kd) of 3.48 nM.
The figure for B27 is 730 nM; for B28 it is 3.28 nM.
The figure for B29 is 12.3 nM; for B30 it is 183 nM; for B31 it is 125 nM.
With B32, binding was characterised by a dissociation constant (Kd) of 120 nM.
The figure for UCUCUUUGUACAUUCUCUCUU (ssRNA) [Ib_S1_P4E.1_K4.1_C4.1_H4.1_A4.1_[T5C]_F4.1_[A9C]_T4.1] is 5.41 nM.
